Source: patent US20240400708A1

Target: feline FcRn complex (FcRn-α subunit and β-microglobulin), biotin labeled (feline)
Assay: SPR, pH 6

Row | Binder | Kd [nM]
1 | feline IgG1a S428W (antibody, part only; not given: Variable domains, not shown: another chain or arm of the molecule; small tags and cut ends) constant: ASTTAPSVFPLAPSCGTTSGATVALACLVLGYFPEPVTVSWNSGALTSGVHTFPAVLQASGLYSLSSMVTVPSSRWLSDTFTCNVAHPPSNTKVDKTVRKTDHPPGPKPCDCPKCPPPEMLGGPSIFIFPPKPKDTLSISRTPEVTCLVVDLGPDDSDVQITWFVDNTQVYTAKTSPREEQFNSTYRVVSVLPILHQDWLKGKEFKCKVNSKSLPSPIERTISKAKGQPHEPQVYVLPPAQEELSRNKVSVTCLIKSFHPPDIAVEWEITGQPEPENNYRTTPPQLDSDGTYFVYSKLSVDRSHWQRGNTYTCSVWHEALHSHHTQKSLTQSPGK | 36.4
2 | feline IgG1a S428M (antibody, part only; not given: Variable domains, not shown: another chain or arm of the molecule) constant: ASTTAPSVFPLAPSCGTTSGATVALACLVLGYFPEPVTVSWNSGALTSGVHTFPAVLQASGLYSLSSMVTVPSSRWLSDTFTCNVAHPPSNTKVDKTVRKTDHPPGPKPCDCPKCPPPEMLGGPSIFIFPPKPKDTLSISRTPEVTCLVVDLGPDDSDVQITWFVDNTQVYTAKTSPREEQFNSTYRVVSVLPILHQDWLKGKEFKCKVNSKSLPSPIERTISKAKGQPHEPQVYVLPPAQEELSRNKVSVTCLIKSFHPPDIAVEWEITGQPEPENNYRTTPPQLDSDGTYFVYSKLSVDRSHWQRGNTYTCSVMHEALHSHHTQKSLTQSPGK | 21.8
3 | feline IgG1a S254Q (antibody, part only; not given: Variable domains, not shown: another chain or arm of the molecule) constant: ASTTAPSVFPLAPSCGTTSGATVALACLVLGYFPEPVTVSWNSGALTSGVHTFPAVLQASGLYSLSSMVTVPSSRWLSDTFTCNVAHPPSNTKVDKTVRKTDHPPGPKPCDCPKCPPPEMLGGPSIFIFPPKPKDTLSIQRTPEVTCLVVDLGPDDSDVQITWFVDNTQVYTAKTSPREEQFNSTYRVVSVLPILHQDWLKGKEFKCKVNSKSLPSPIERTISKAKGQPHEPQVYVLPPAQEELSRNKVSVTCLIKSFHPPDIAVEWEITGQPEPENNYRTTPPQLDSDGTYFVYSKLSVDRSHWQRGNTYTCSVSHEALHSHHTQKSLTQSPGK | 24.7
4 | feline IgG1a S252W (antibody, part only; not given: Variable domains, not shown: another chain or arm of the molecule) constant: ASTTAPSVFPLAPSCGTTSGATVALACLVLGYFPEPVTVSWNSGALTSGVHTFPAVLQASGLYSLSSMVTVPSSRWLSDTFTCNVAHPPSNTKVDKTVRKTDHPPGPKPCDCPKCPPPEMLGGPSIFIFPPKPKDTLWISRTPEVTCLVVDLGPDDSDVQITWFVDNTQVYTAKTSPREEQFNSTYRVVSVLPILHQDWLKGKEFKCKVNSKSLPSPIERTISKAKGQPHEPQVYVLPPAQEELSRNKVSVTCLIKSFHPPDIAVEWEITGQPEPENNYRTTPPQLDSDGTYFVYSKLSVDRSHWQRGNTYTCSVSHEALHSHHTQKSLTQSPGK | 80.3
5 | feline IgG1a S428L (antibody, part only; not given: Variable domains, not shown: another chain or arm of the molecule) constant: ASTTAPSVFPLAPSCGTTSGATVALACLVLGYFPEPVTVSWNSGALTSGVHTFPAVLQASGLYSLSSMVTVPSSRWLSDTFTCNVAHPPSNTKVDKTVRKTDHPPGPKPCDCPKCPPPEMLGGPSIFIFPPKPKDTLSISRTPEVTCLVVDLGPDDSDVQITWFVDNTQVYTAKTSPREEQFNSTYRVVSVLPILHQDWLKGKEFKCKVNSKSLPSPIERTISKAKGQPHEPQVYVLPPAQEELSRNKVSVTCLIKSFHPPDIAVEWEITGQPEPENNYRTTPPQLDSDGTYFVYSKLSVDRSHWQRGNTYTCSVLHEALHSHHTQKSLTQSPGK | 81.5
6 | feline IgG1a S254R (antibody, part only; not given: Variable domains, not shown: another chain or arm of the molecule) constant: ASTTAPSVFPLAPSCGTTSGATVALACLVLGYFPEPVTVSWNSGALTSGVHTFPAVLQASGLYSLSSMVTVPSSRWLSDTFTCNVAHPPSNTKVDKTVRKTDHPPGPKPCDCPKCPPPEMLGGPSIFIFPPKPKDTLSIRRTPEVTCLVVDLGPDDSDVQITWFVDNTQVYTAKTSPREEQFNSTYRVVSVLPILHQDWLKGKEFKCKVNSKSLPSPIERTISKAKGQPHEPQVYVLPPAQEELSRNKVSVTCLIKSFHPPDIAVEWEITGQPEPENNYRTTPPQLDSDGTYFVYSKLSVDRSHWQRGNTYTCSVSHEALHSHHTQKSLTQSPGK | 21.5
7 | feline IgG1a S254N (antibody, part only; not given: Variable domains, not shown: another chain or arm of the molecule) constant: ASTTAPSVFPLAPSCGTTSGATVALACLVLGYFPEPVTVSWNSGALTSGVHTFPAVLQASGLYSLSSMVTVPSSRWLSDTFTCNVAHPPSNTKVDKTVRKTDHPPGPKPCDCPKCPPPEMLGGPSIFIFPPKPKDTLSINRTPEVTCLVVDLGPDDSDVQITWFVDNTQVYTAKTSPREEQFNSTYRVVSVLPILHQDWLKGKEFKCKVNSKSLPSPIERTISKAKGQPHEPQVYVLPPAQEELSRNKVSVTCLIKSFHPPDIAVEWEITGQPEPENNYRTTPPQLDSDGTYFVYSKLSVDRSHWQRGNTYTCSVSHEALHSHHTQKSLTQSPGK | 25.7
8 | feline IgG1a S252M (antibody, part only; not given: Variable domains, not shown: another chain or arm of the molecule) constant: ASTTAPSVFPLAPSCGTTSGATVALACLVLGYFPEPVTVSWNSGALTSGVHTFPAVLQASGLYSLSSMVTVPSSRWLSDTFTCNVAHPPSNTKVDKTVRKTDHPPGPKPCDCPKCPPPEMLGGPSIFIFPPKPKDTLMISRTPEVTCLVVDLGPDDSDVQITWFVDNTQVYTAKTSPREEQFNSTYRVVSVLPILHQDWLKGKEFKCKVNSKSLPSPIERTISKAKGQPHEPQVYVLPPAQEELSRNKVSVTCLIKSFHPPDIAVEWEITGQPEPENNYRTTPPQLDSDGTYFVYSKLSVDRSHWQRGNTYTCSVSHEALHSHHTQKSLTQSPGK | 55

Stronger by Kd, values ahead:

Row | Kd [nM] | Binder
9 | 19.2 | feline IgG1a S428V (antibody, part only; not given: Variable domains, not shown: another chain or arm of the molecule; small tags and cut ends) constant: ASTTAPSVFPLAPSCGTTSGATVALACLVLGYFPEPVTVSWNSGALTSGVHTFPAVLQASGLYSLSSMVTVPSSRWLSDTFTCNVAHPPSNTKVDKTVRKTDHPPGPKPCDCPKCPPPEMLGGPSIFIFPPKPKDTLSISRTPEVTCLVVDLGPDDSDVQITWFVDNTQVYTAKTSPREEQFNSTYRVVSVLPILHQDWLKGKEFKCKVNSKSLPSPIERTISKAKGQPHEPQVYVLPPAQEELSRNKVSVTCLIKSFHPPDIAVEWEITGQPEPENNYRTTPPQLDSDGTYFVYSKLSVDRSHWQRGNTYTCSVVHEALHSHHTQKSLTQSPGK
10 | 5.64 | feline IgG1a S434P (antibody, part only; not given: Variable domains, not shown: another chain or arm of the molecule) constant: ASTTAPSVFPLAPSCGTTSGATVALACLVLGYFPEPVTVSWNSGALTSGVHTFPAVLQASGLYSLSSMVTVPSSRWLSDTFTCNVAHPPSNTKVDKTVRKTDHPPGPKPCDCPKCPPPEMLGGPSIFIFPPKPKDTLSISRTPEVTCLVVDLGPDDSDVQITWFVDNTQVYTAKTSPREEQFNSTYRVVSVLPILHQDWLKGKEFKCKVNSKSLPSPIERTISKAKGQPHEPQVYVLPPAQEELSRNKVSVTCLIKSFHPPDIAVEWEITGQPEPENNYRTTPPQLDSDGTYFVYSKLSVDRSHWQRGNTYTCSVSHEALHPHHTQKSLTQSPGK
11 | 6.94 | feline IgG1a S434N (antibody, part only; not given: Variable domains, not shown: another chain or arm of the molecule) constant: ASTTAPSVFPLAPSCGTTSGATVALACLVLGYFPEPVTVSWNSGALTSGVHTFPAVLQASGLYSLSSMVTVPSSRWLSDTFTCNVAHPPSNTKVDKTVRKTDHPPGPKPCDCPKCPPPEMLGGPSIFIFPPKPKDTLSISRTPEVTCLVVDLGPDDSDVQITWFVDNTQVYTAKTSPREEQFNSTYRVVSVLPILHQDWLKGKEFKCKVNSKSLPSPIERTISKAKGQPHEPQVYVLPPAQEELSRNKVSVTCLIKSFHPPDIAVEWEITGQPEPENNYRTTPPQLDSDGTYFVYSKLSVDRSHWQRGNTYTCSVSHEALHNHHTQKSLTQSPGK
12 | 2.8 | feline IgG1a S434M (antibody, part only; not given: Variable domains, not shown: another chain or arm of the molecule) constant: ASTTAPSVFPLAPSCGTTSGATVALACLVLGYFPEPVTVSWNSGALTSGVHTFPAVLQASGLYSLSSMVTVPSSRWLSDTFTCNVAHPPSNTKVDKTVRKTDHPPGPKPCDCPKCPPPEMLGGPSIFIFPPKPKDTLSISRTPEVTCLVVDLGPDDSDVQITWFVDNTQVYTAKTSPREEQFNSTYRVVSVLPILHQDWLKGKEFKCKVNSKSLPSPIERTISKAKGQPHEPQVYVLPPAQEELSRNKVSVTCLIKSFHPPDIAVEWEITGQPEPENNYRTTPPQLDSDGTYFVYSKLSVDRSHWQRGNTYTCSVSHEALHMHHTQKSLTQSPGK
